Experiments:
[1] = molecular target: T1, truncated peptide KPGVISVMG; test: hybridoma clone screening with peptides
T1 construct: Synthetic peptide, American Peptide Company
T1 peptide: KPGVISVMG

[2] = molecular target: T2, elongated peptide KPGVISVMGTA; test: hybridoma clone screening with peptides
T2 construct: Synthetic peptide, Chinese Peptide Company
T2 peptide: KPGVISVMGTA

[3] = molecular target: T3, PRO-C6 sequence KPGVISVMGT (last 10 amino acids of the type VI collagen alpha3 chain, 3168-3177); test: hybridoma clone screening with peptides
T3 construct: also called selection peptide; immunogenic peptide
T3 peptide: KPGVISVMGT

[4] = molecular target: T4, Pro-C3 target sequence CPTGPQNYSP (C-terminal neo-epitope of PIIINP, residues 144-153 of the alpha1 chain) (human); test: antibody characterization with peptides (ELISA, as previously described)
T4 construct: Synthetic peptide with free C-terminus (-COOH)
T4 peptide: CPTGPQNYSP

[5] = molecular target: T5, elongated peptide CPTGPQNYSPQ (human); test: as above
T5 construct: the peptide tested is printed with Pro at that position
T5 peptide: CPTGPQNYSPQ

[6] = molecular target: T6, non-sense peptide GSPGKDGVRG; test: as above
T6 construct: Control peptide
T6 peptide: GSPGKDGVRG

B1: PRO-C6 monoclonal antibody 10A3 (antibody, mouse IgG1, kappa, V domains shown)
VH: EVQLQQSGPVMVKPGTSVKTSCKASGYTFTDFNMNWVKQSHGKSLEWIGAINPHNGATSYNQKFSGKATLTVDKSSSTAYMELNSLTSDDSAVYYCARWGNGKNSWGQGTTLTVSS
VL: DVVMTQTPLSLPVNLGDQASISCRSSQRIVHSNGITFLEWYLQKPGQSPKLLIYRVSNRFSGVPDRFSGSGSGTDFTLKISRVEAEDLGLYYCFQGSHVPLTFGAGTRLELKR
notes: Mouse IgG1 / kappa; also called monoclonal antibody specific for PRO-C6
binding result [1]: no binding
binding result [2]: no binding
binding result [3]: binds

B2: Pro-C3 monoclonal antibody (monoclonal antibody NB61N-62) (antibody, mouse IgG2a, kappa, V domains shown)
VH: EVQLQQSGPEVLKPGASVKMSCKASGYTFINYVIHWLKQKAGQGPEWIGYMNPYNDVPKNNAKFRGKARLTSDRSSTTAYMELNSLTSEDSAVYYCARGGFFGPLSYWGQGTLVTVSA
VL: DVLMTQTPLSLSVSLGDQASISCRSSQNIVYSNGDTYFEWYLQKPGQSPKLLIYKVSQRFSGVPDRFSGSGSGTDFTLKISRVETEDLGVYYCFQGAHDPPAFGGGTKLELKR
binding result [4]: binds
binding result [5]: no binding
binding result [6]: no binding
